Experimental data reported in patent US8461305B2, “L-fucose α1→6 specific lectin” (J-Oil Mills, Inc., priority 2008, dated 2013).

Assays:
Format in all cases: binding
Lactoferrin (bovine) = Lactoferrin (bovine) (Bos taurus, UniProt P24627); experiment: detection of glycoprotein by Western blotting with biotin-labeled lectin; parameters: key: ◯: Detected; X: Not detected; conditions: (2) Lactoferrin (bovine), N-linked glycan having α1→6 L-fucose; biotin-labeled lectin 2 μg/ml
Method: (§1) PTL of Example 1, SRL of Example 2, AAL of Comparison Example 1, AOL of Comparison Example 2, and LCA of Comparison Example 3 all subjected to biotin-labeling.
(§2) Lectin was measured and was dissolved in 0.1 M sodium hydrogen carbonate solution (5 mg/ml). Then, a biotinylation reagent was dissolved in dimethyl sulfoxide and the resultant solution was added to lectin solution to cause reaction therebetween. Then, the reactant was […] and lyophilized, thereby obtain biotin-labeled lectin.
(§3) The solution obtained by dissolving the glycoprotein sample in 10 mM phosphate buffered saline (pH 7.4, PBS) at 2 mg/ml was dispensed to a microtube by a unit of 18 μl. 6 μl of SDS process liquid (Sample Buffer Solution (2ME−); Wako Pure Chemical Industries, Ltd.) and 1.25 μl of 2-mercaptoethanol (Bio-Rad Laboratories, Inc.) was added to each dispensed fluid and the resultant mixture was boiled for 5 minutes.
(§4) The film was immersed in 10 mM Tris buffer solution including 0.8% NaCl added with 1% BSA (pH 7.4, 1% BSA+TBS) and was shaken at a room temperature for one hour. Then, the film was cleaned three times by 10 mM Tris buffer solution (pH 7.4, TBS) including 0.8% NaCl. Then, the film was immersed in biotin-labeled lectin solution (2 μg/ml) and was shaken at a room temperature for one hour. Then, the film was cleaned three times by TBS. Then, the film was immersed in the HRP label streptavidin solution at 1 μg/ml (Vector Laboratories) and was shaken at a room temperature for 30 minutes. After the film was cleaned three times by TBS, a POD immunostain set (Wako Pure Chemical Industries, Ltd.) was used to perform a staining test. The staining test is to detect glycoprotein by the western blotting using biotin-labeled lectin. FIG. 13 to FIG. 17 are photographs showing the following glycoproteins stained by PTL (FIG. 13), SRL (FIG. 14), AAL (FIG. 15), AOL (FIG. 16), or LCA (FIG. 17).
(§5) In FIG. 13 to FIG. 17, the lanes 0 to 6 correspond to the followings. Lane 1: thyroglobulin, lane 2: lactoferrin, lane 3: immune immunoglobulin, lane 4: transferrin, lane 5: α1-acidic glycoprotein, lane 6: invertase, lane 0: bovine serum albumin (control)

[1] = biological target: Blood serum albumin (bovine) (Bos taurus, UniProt P02769); experiment: as above; parameters: key: ◯: Detected; X: Not detected; conditions: (O) Blood serum albumin (bovine), No sugar chain; biotin-labeled lectin 2 μg/ml
Blood serum albumin (bovine), sequence (P02769 25-607): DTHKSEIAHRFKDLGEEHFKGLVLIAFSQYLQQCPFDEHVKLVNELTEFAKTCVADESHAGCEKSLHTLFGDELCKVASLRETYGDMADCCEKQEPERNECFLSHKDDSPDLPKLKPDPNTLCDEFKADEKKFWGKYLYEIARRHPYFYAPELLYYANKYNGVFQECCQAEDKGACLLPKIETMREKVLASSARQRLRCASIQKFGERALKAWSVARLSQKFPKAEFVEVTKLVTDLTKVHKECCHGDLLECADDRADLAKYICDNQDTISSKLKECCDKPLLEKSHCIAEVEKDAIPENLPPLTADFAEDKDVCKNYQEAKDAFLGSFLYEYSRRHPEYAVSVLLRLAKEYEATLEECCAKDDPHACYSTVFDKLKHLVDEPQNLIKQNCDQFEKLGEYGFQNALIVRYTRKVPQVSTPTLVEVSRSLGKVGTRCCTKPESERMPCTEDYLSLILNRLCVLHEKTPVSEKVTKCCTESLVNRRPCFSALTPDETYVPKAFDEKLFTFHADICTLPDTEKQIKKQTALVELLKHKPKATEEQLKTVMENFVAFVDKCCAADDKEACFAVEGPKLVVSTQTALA
Method: as §1, §2, §3, §4, §5

[2] = biological target: T1, α-fetoprotein (mainly L1-type sugar chain) (Homo sapiens, UniProt P02771); experiment: detection of tumor marker sugar chain by ELISA; conditions: α-fetoprotein from human umbilical cord blood serum, coated at 0.01 μg/ml
T1 construct: derived from human umbilical cord blood serum; from tissue; host or cells: human umbilical cord blood serum
T1 sequence (P02771 19-609): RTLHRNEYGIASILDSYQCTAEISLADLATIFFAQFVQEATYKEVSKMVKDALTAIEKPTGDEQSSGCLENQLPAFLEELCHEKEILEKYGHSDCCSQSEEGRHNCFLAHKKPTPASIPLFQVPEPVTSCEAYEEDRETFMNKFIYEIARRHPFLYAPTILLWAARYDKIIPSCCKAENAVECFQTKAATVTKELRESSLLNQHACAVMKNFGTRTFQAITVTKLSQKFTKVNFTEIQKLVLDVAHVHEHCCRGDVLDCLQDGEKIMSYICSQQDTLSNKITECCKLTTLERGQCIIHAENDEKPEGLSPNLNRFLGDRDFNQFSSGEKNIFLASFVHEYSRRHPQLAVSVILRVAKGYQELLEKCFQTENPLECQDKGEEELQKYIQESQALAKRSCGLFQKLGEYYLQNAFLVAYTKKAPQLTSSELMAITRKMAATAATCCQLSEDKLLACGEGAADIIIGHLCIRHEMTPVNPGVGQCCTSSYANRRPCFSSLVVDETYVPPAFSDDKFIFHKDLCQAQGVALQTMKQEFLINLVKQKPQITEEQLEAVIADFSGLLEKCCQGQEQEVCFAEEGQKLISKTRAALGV
From the text: (§6) α-fetoprotein (hereinafter referred to as “AFP”) is a glycoprotein included in a blood serum having an N-linked sugar chain. Substantially no AFP exists in the blood serum of a healthy adult. On the other hand, the blood serum of a patient having a benign liver disease has an increased α-fetoprotein L1-type sugar chain (AFP-L1). Furthermore, α-fetoprotein L3-type sugar chain (AFP-L3) is detected in a patient of a liver cancer. Conventionally, the difference in a sugar chain has been measured by LCA and the measurement result has been used for the diagnosis of a liver disease.
(§7) PTL of Example 1, SRL of Example 2, AAL of Comparison Example 1, AOL of Comparison Example 2, and the LCA of Comparison Example 3 that were biotin-labeled were used to evaluate the binding property of α-fetoprotein by ELISA.
(§8) 0.1 M carbonic acid buffer solution (pH 9.5) was used to dilute α-fetoprotein (derived from human umbilical cord blood serum, mainly L1-type sugar chain) and α-fetoprotein-L3 (prepared from the culture supernatant of human liver cancer cells) so as to achieve 0.01 μg/ml. Then, the resultant solution was added to a microtiter plate (Nunc) and was incubated at 4 degrees C. one night. After the solution was cleaned by 0.05% Tween/PBS three times, 1% BSA/PBS was added to wells and the solution was incubated at 37 degrees C. for one hour. After the solution was washed by 0.05% Tween/PBS three times, the wells were added with the biotin-labeled lectin solution appropriately diluted by 1% BSA/0.05% Tween/PBS and the solution was incubated at 37 degrees C. for one hour. After the solution was cleaned by 0.05% Tween/PBS three times, HRP labeled streptavidin solution diluted by 1% BSA/0.05% Tween/PBS was added and the solution was incubated at 37 degrees C. for 30 minutes. After the solution was cleaned by 0.05% Tween/PBS three times, TMB Peroxidase substrate system (KPL) was added and the resultant solution was incubated at a room temperature for 10 minutes while light was being blocked. The reaction was stopped by 1 M phosphoric acid. Then, a microplate reader (MPR-A4i, TOSOH CORPORATION) was used to measure the absorbance at 450 nm.
(§9) The absorbance at 450 nm of the plate on which α-fetoprotein and α-fetoprotein-L3 were caused to react with lectin was measured. Based on this value, the reaction value ([absorbance at 450 nm of a well for which glycoprotein was solid-phased to the plate and reacted]−[absorbance at 450 nm of a well for which glycoprotein was not solid-phased to the plate and reacted]) was calculated. Next, for each lectin, the interaction was calculated. Next, the calculation result of the reaction values is shown in Table 10 and FIG. 24 to FIG. 28.

α-fetoprotein-L3 = biological target: T2, α-fetoprotein-L3 (Homo sapiens, UniProt P02771); experiment: detection of tumor marker sugar chain by ELISA; conditions: α-fetoprotein-L3 from culture supernatant of human liver cancer cells, coated at 0.01 μg/ml
T2 construct: prepared from the culture supernatant of human liver cancer cells; endogenous in cells
T2 sequence (P02771 19-609): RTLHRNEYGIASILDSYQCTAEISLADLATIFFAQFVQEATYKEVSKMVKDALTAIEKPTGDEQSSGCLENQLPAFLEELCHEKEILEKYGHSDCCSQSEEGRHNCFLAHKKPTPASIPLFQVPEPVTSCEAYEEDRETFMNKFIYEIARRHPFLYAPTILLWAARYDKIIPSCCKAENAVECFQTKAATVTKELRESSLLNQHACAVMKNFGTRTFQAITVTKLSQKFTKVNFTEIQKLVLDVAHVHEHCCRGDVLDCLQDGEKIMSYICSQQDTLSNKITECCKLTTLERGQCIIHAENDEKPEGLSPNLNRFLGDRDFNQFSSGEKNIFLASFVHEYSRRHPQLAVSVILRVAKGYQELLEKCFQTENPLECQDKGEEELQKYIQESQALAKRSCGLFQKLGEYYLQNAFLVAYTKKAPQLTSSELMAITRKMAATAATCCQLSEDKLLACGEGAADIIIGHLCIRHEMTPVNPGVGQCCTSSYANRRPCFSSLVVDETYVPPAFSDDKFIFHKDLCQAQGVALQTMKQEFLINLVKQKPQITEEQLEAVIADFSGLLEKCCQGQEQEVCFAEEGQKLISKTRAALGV
From the text: as §6, §7, §8, §9

Lactoferrin (bovine), sequence (P24627 20-708): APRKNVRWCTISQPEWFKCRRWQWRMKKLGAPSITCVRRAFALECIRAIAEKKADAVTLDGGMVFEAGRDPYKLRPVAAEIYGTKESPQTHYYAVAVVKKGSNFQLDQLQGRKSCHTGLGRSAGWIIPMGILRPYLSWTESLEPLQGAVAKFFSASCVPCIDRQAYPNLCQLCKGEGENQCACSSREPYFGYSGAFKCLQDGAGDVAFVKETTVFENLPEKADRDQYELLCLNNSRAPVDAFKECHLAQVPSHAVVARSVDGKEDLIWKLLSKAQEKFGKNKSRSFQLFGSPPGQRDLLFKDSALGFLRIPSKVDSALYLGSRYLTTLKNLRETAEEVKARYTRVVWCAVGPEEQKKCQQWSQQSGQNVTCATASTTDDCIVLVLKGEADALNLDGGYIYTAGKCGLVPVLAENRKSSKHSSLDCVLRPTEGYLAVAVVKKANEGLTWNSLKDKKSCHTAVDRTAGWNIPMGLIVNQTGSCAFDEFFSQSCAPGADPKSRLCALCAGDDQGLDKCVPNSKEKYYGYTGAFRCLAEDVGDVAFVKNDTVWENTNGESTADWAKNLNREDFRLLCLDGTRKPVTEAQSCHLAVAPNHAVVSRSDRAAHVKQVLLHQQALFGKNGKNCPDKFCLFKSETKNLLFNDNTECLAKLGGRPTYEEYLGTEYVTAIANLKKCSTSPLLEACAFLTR

Molecule	detection of glycoprotein by Western blotting (Lactoferrin (bovine))	detection of glycoprotein by Western blotting [1]	reaction value (absorbance at 450 nm, blank-subtracted) by ELISA [2]	reaction value (absorbance at 450 nm, blank-subtracted) by ELISA (α-fetoprotein-L3)
Pholiota terrestris lectin [PTL, novel L-fucose α1→6 specific lectin purified from the mushroom Pholiota terrestris]	◯	X	0.039	1.548
Stropharia rugosoannulata lectin [SRL, novel L-fucose α1→6 specific lectin purified from the mushroom Stropharia rugosoannulata]	◯	X	0.031	1.625
Aspergillus oryzae lectin [AOL, reference compound]	◯	X	0.011	0.898
Aleuria aurantia lectin (protein) PTEFLYTSKIAAISWAATGGRQQRVYFQDLNGKIREAQRGGDNPWTGGSSQNVIGEAKLFSPLAAVTWKSAQGIQIRVYCVNKDNILSEFVYDGSKWITGQLGSVGVKVGSNSKLAALQWGGSESAPPNIRVYYQKSNGSGSSIHEYVWSGKWTAGASFGSTVPGTGIGATAIGPGRLRIYYQATDNKIREHCWDSNSWYVGGFSASASAGVSIAAISWGSTPNIRVYWQKGREELYEAAYGGSWNTPGQIKDASRPTPSLPDTFIAANSSGNIDISVFFQASGVSLQQWQWISGKGWSIGAVVPTGTPAGW	◯	X	−0.049	0.795
Lens culinaris agglutinin (protein) chain 1: TETTSFSITKFSPDQKNLIFQGDGYTTKGKLTLTKAVKSTVGRALYSTPIHIWDRDTGNVANFVTSFTFVIDAPSSYNVADEFTFFIAPVDTKPQTGGGYLGVFNSKEYDKTSQTVAVEFDTFYNAAWDPSNKERHIGIDVNSIKSVNTKSWNLQNGERANVVIAFNAATNVLTVTLTYP chain 2: VTSYTLNEVVPLKDVVPEWVRIGFSATTGAEFAAHEVHSWSFHSELGGTSSS	◯	X	0.010	0.455
